Laboratory results: the supplement of paper PMC7877785
± gives the uncertainty stated by the source.

Test: self-splicing fitness, log relative to wild type (ln ratio); higher = more splicing; Tetrahymena group I intron in knt gene, E. coli kanamycin selection, DiMSum; sequences stand for … in CUCUCU…GGAGGGAAAAGUUAUCAGGCAUGCACCUGGUAGCUAGUCUUUAAACCAAUAGAUUGCAUCGGUUUAAAAGGCAAGACCGUCAAAUUGCGGGAAAGGGGUCAACAGCCGUUCAGUACCAAGUCUCAGGGGAAACUUUGAGAUGGCCUUGCAAAGGGUAUGGUAAUAAGCUGACGGACAUGGUCCUAACCACGCAGCCAAGUCCUAAGUCAACAGAUCUUCUGUUGAUAUGGAUGCAGUUCACAGACUAAAUGUCGGUCGGGGAAGAUGUAUUCUUCUCAUAAGAUAUAGUCGGACCUCUCCUUAAUGGGAGCUAGCGGAUGAAGUGAUGCAACACUGGAGCCGCUGGGAACUAAUUUGUAUGCGAAAGUAUAUUGAUUAGUUUUGGAGUACUCGUGGUCG
Procedure, shortened: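 Six replicate transformations of E. coli BL21(DE3) with a pET-22b(+) library were grown overnight at 37°C or 30°C. The library randomised all eight P1ex-region intron nucleotides, the intron lying in the knt kanamycin-resistance gene, and plates were LB agar with or without 25 μg/mL kanamycin plus 100 μg/mL carbenicillin, 50 μM IPTG and 0.2% rhamnose. Pooled colonies were amplicon-sequenced on an Illumina HiSeq 2500, and fitness is the DiMSum error-weighted combination of wild-type-normalised replicate fold changes, kanamycin versus none.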

| Sequence | self-splicing fitness (ln) (30 °C) | self-splicing fitness (ln) (37 °C) |
| --- | --- | --- |
| UGUCAGCAAUAUUACGUAAG | -0.352 ± 0.07 | 0.0208 ± 0.087 |
| GCCAAGCAAUAUUACGUCUA | -1.15 ± 0.11 | -1.08 ± 0.1 |
| AUUUAGCAAUAUUACGAUUG | -2.72 ± 0.21 | -2.05 ± 0.27 |
| GUGAAGCAAUAUUACGGCAC | -0.747 ± 0.16 | -0.289 ± 0.33 |
| GGCUAGCAAUAUUACGCCUC | -1.35 ± 0.18 | -0.927 ± 0.23 |
| ACGAAGCAAUAUUACGUGAG | -0.888 ± 0.056 | -1.14 ± 0.087 |
| GCUCAGCAAUAUUACGGUCG | -2.35 ± 0.14 | -0.924 ± 0.14 |
| AGAGAGCAAUAUUACGAAUA | – | -0.719 ± 0.49 |
| CGAAAGCAAUAUUACGAAAG | -0.96 ± 0.073 | -0.475 ± 0.11 |
| GGAAAGCAAUAUUACGUGCA | -0.965 ± 0.075 | 0.36 ± 0.099 |
| AUAUAGCAAUAUUACGGCUC | -0.0589 ± 0.13 | -0.144 ± 0.16 |
| ACUCAGCAAUAUUACGCGUA | -0.747 ± 0.11 | -0.395 ± 0.11 |
| CUUAAGCAAUAUUACGCAGC | -3.43 ± 0.25 | -1.93 ± 0.37 |
| UUGGAGCAAUAUUACGCUAG | -2.56 ± 0.23 | -1.64 ± 0.2 |
| CAGUAGCAAUAUUACGCCAA | -2.85 ± 0.36 | -2.91 ± 0.31 |
| GGGGAGCAAUAUUACGGUGA | -2.23 ± 0.36 | – |
| ACCGAGCAAUAUUACGGGGG | -3.8 ± 0.18 | -3.18 ± 0.2 |
| AUCAAGCAAUAUUACGUAAG | -2.05 ± 0.097 | -1.45 ± 0.13 |
| UCGCAGCAAUAUUACGUUUA | -1.78 ± 0.12 | -1.11 ± 0.11 |
| GCGCAGCAAUAUUACGGGGA | -2.23 ± 0.14 | -0.687 ± 0.11 |
| UUGAAGCAAUAUUACGCCUU | -2.96 ± 0.13 | -1.53 ± 0.14 |
| GCAGAGCAAUAUUACGAUUU | -2.51 ± 0.14 | -2.16 ± 0.19 |
| UCAGAGCAAUAUUACGGUUA | -2.88 ± 0.26 | -2.05 ± 0.22 |
| ACCUAGCAAUAUUACGUGAC | -3.2 ± 0.12 | -0.892 ± 0.11 |
| CACAAGCAAUAUUACGGUUA | -1.01 ± 0.076 | -0.918 ± 0.078 |

| Sequence | self-splicing fitness (ln) (30 °C) | self-splicing fitness (ln) (37 °C) |
| --- | --- | --- |
| CAGAAGCAAUAUUACGAACG | -0.0252 ± 0.12 | 0.182 ± 0.16 |
| GCGAAGCAAUAUUACGGCUA | 0.15 ± 0.15 | -0.618 ± 0.12 |
| UCCAAGCAAUAUUACGUUUG | -3.5 ± 0.15 | -2.97 ± 0.2 |
| AGCAAGCAAUAUUACGCGAA | -2.39 ± 0.1 | -0.85 ± 0.099 |
| GGGCAGCAAUAUUACGCUGG | -3.14 ± 0.14 | -2.53 ± 0.16 |
| CCUAAGCAAUAUUACGGUUG | -3.92 ± 0.19 | -2.07 ± 0.15 |
| UGUAAGCAAUAUUACGAGAU | -3.71 ± 0.3 | -3.14 ± 0.37 |
| GAGUAGCAAUAUUACGCAAU | – | -2.34 ± 0.31 |
| CCAGAGCAAUAUUACGGACA | -3.25 ± 0.44 | – |
| GCUCAGCAAUAUUACGACCA | -0.232 ± 0.18 | -0.532 ± 0.15 |
| GCGGAGCAAUAUUACGUGUG | -3.19 ± 0.17 | -2.77 ± 0.29 |
| CGCCAGCAAUAUUACGUGGC | -3.72 ± 0.2 | -2.5 ± 0.2 |
| AUACAGCAAUAUUACGAUGU | -0.929 ± 0.076 | -0.0117 ± 0.089 |
| CAUGAGCAAUAUUACGUCUC | -2.83 ± 0.22 | – |
| GUAAAGCAAUAUUACGGACG | -1.06 ± 0.12 | 0.298 ± 0.15 |
| GCUCAGCAAUAUUACGAUUC | -0.0882 ± 0.054 | 0.832 ± 0.075 |
| CUUGAGCAAUAUUACGGGCA | -3.94 ± 0.35 | -1.91 ± 0.21 |
| CUCCAGCAAUAUUACGGCGG | -4.65 ± 0.28 | -3.1 ± 0.22 |
| AACGAGCAAUAUUACGCACA | -2.86 ± 0.23 | -2.09 ± 0.21 |
| UUCGAGCAAUAUUACGAGGA | -1.87 ± 0.27 | -2.76 ± 0.44 |
| AAUCAGCAAUAUUACGUAGU | -0.0974 ± 0.059 | 0.211 ± 0.074 |
| GGCAAGCAAUAUUACGCGAU | -2.6 ± 0.25 | -2.37 ± 0.24 |
| AUUUAGCAAUAUUACGUUUG | -3.78 ± 0.21 | -1.25 ± 0.16 |
| AAGUAGCAAUAUUACGGUCU | -0.291 ± 0.062 | -0.0526 ± 0.086 |
